One block for each binder: values may come before it.
Tests used:
[1] = target: T1, purified human monomeric 4-1BB (UniProt Q07011 24-186); test: SPR; 25 °C, steady state affinity
[2] = target: T1, purified human monomeric 4-1BB; test: SPR; 25 °C

T1 sequence (Q07011 other isoform, or with tags, fused parts or gaps): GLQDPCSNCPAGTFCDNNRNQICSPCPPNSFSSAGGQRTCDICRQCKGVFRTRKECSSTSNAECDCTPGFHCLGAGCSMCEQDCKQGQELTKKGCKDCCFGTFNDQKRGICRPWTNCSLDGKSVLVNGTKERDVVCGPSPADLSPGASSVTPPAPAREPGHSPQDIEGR

Kd [1]: 687 nM
B1: v28696 (antibody, V domains shown)
VH: QVQLQESGPGLVKPSETLSLTCTVSGFSLISYGVHWIRQPPGKGLEWIGVIWSGGSTDYNPSLKSRVTISVDTSKNQFSLKLSSVTAADTAVYYCARNPLTATVMDYWGQGTLVTVSS
VL: DIQMTQSPSSLSASVGDRVTITCRASQNVGTNVAWYQQKPGKAPKALIYSASYRDSGVPSRFSGSGSGTDFTLTISSLQPEDFATYYCQQYNSYPLTFGGGTKVEIKR

Kd [2]: 256 nM
B2: v20036 (antibody, V domains shown)
VH: QVQLQESGPGLVQPTQSLSITCTVSGFSLISYGVHWVRQSPGKGLEWLGVIWSGGSTDYNAAFISRLSISKDNSKSQVFFKMNSLQADDTAIYYCARNPLTATVMDYWGQGTSVTVSS
VL: DIVMTQSQKFMSTSVGDRVSVTCKASQNVGTNVAWYQQKPGQSPKALIYSASYRDSGVPDRFTGSGSGTDFTLTISNVQSEDLAEYLCQQYNSYPLTFGAGTKLELKR
